Blank lines part the entries; values can stand above or below the binder they belong to.
Tests used:
OsCS aa 316-583 = molecular target: T1, OsCS aa 316-583 (Oryza sativa, UniProt A2Y0X2 316-583); assay: Y2H; input trait library
T1 construct: bait, Gal4 DBD fusion; also called PN19707
T1 sequence: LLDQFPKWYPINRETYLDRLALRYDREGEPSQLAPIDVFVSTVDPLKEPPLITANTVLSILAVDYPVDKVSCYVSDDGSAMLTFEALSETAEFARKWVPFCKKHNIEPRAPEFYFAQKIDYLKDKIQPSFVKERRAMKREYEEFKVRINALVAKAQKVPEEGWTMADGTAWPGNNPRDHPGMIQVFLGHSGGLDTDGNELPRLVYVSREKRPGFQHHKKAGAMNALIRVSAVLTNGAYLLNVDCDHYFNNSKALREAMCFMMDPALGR
How it was run: (§1)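 Using an automated, high-throughput yeast two-hybrid assay provided by Myriad Genetics Inc. (Salt Lake City, Utah), protein-protein interactions were detected. Against either the input trait or the output trait rice prey library, a bait clone encoding a defined amino-acid fragment of a rice protein was screened. The encoding sequences of the prey clones that were retrieved were then compared against databases by BLAST to identify the interacting proteins.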

OsRACD aa 1-198 = molecular target: T2, OsRACD aa 1-198 (Oryza sativa, UniProt Q6EP31 1-197); assay: Y2H; input trait library
T2 construct: bait, Gal4 DBD fusion; also called PN19695
How it was run: as §1

PN20674 aa 64-263 = molecular target: T3, PN20674 aa 64-263 (Oryza sativa, UniProt Q6AVA8 64-263); assay: Y2H; input trait library
T3 construct: prey, AD fusion; also called Pyruvate orthophosphate dikinase-like
T3 sequence: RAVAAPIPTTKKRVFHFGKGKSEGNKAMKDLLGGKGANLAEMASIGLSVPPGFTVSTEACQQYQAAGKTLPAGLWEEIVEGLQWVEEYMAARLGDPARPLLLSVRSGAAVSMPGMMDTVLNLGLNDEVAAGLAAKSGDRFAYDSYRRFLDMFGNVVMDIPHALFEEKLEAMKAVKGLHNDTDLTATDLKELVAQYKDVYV
How it was run: as §1

PN20674 aa 71-298 = molecular target: T4, PN20674 aa 71-298 (Oryza sativa, UniProt Q6AVA8 71-298); assay: Y2H; input trait library
T4 construct: prey, AD fusion; also called Pyruvate orthophosphate dikinase-like
T4 sequence: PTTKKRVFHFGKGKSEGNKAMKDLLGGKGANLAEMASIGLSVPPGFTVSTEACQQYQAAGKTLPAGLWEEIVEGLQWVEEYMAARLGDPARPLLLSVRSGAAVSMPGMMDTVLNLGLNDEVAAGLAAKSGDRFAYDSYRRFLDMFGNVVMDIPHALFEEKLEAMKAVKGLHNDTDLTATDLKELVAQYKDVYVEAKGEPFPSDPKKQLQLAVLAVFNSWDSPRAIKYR
How it was run: as §1

OsS49462 aa 1-100 = molecular target: T5, OsS49462 aa 1-100 (Oryza sativa, UniProt Q01J96 179-278); assay: Y2H; input trait library
T5 construct: bait, Gal4 DBD fusion; also called PN20325; O. sativa Cyclin OsS49462, Fragment
T5 sequence: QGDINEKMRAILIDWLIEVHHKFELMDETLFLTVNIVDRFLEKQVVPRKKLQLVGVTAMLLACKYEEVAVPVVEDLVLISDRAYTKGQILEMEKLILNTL
How it was run: as §1

Os008938-3209 aa 53-259 = molecular target: T6, Os008938-3209 aa 53-259 (Oryza sativa, UniProt Q06967 53-259); assay: Y2H; input trait library
T6 construct: prey, AD fusion; also called PN20215; O. sativa Putative 14-3-3 Protein
T6 sequence: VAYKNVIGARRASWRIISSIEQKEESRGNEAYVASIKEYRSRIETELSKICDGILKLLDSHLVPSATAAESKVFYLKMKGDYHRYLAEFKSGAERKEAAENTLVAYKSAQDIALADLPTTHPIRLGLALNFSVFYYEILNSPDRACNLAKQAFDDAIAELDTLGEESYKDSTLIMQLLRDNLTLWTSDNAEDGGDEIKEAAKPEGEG
How it was run: as §1

OsPN22154 aa 390-562 = molecular target: T7, OsPN22154 aa 390-562 (Oryza sativa, UniProt Q6Z6L4 390-562); assay: Y2H; input trait library
T7 construct: prey, AD fusion; also called Novel Protein PN22154, Similar to A. thaliana Glutamyl Aminopeptidase
T7 sequence: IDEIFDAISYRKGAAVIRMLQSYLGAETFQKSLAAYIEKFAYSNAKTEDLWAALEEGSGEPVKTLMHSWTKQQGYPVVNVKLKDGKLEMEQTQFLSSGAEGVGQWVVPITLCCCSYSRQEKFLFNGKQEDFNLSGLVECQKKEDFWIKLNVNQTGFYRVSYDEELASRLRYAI
How it was run: as §1

OsCATA aa 332-433 = molecular target: T8, OsCATA aa 332-433 (Oryza sativa, UniProt P0C549 332-433); assay: Y2H; input trait library
T8 construct: prey, AD fusion; also called PN20899; O. sativa Catalase A Isozyme
T8 sequence: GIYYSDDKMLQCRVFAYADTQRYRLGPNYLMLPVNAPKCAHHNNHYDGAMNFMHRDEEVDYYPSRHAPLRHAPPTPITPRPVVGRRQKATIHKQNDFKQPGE
How it was run: as §1

OsCS aa 411-489 = molecular target: T9, OsCS aa 411-489 (Oryza sativa, UniProt A2Y0X2 411-489); assay: Y2H; input trait library
T9 construct: prey, AD fusion; also called PN19707; O. sativa Cellulose Synthase Catalytic Subunit, RSW1-Like
T9 sequence: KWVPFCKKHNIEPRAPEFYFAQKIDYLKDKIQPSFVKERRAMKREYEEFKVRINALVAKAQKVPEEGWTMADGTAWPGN
How it was run: as §1

[1] = molecular target: T10, OsERP (PN20696) aa 23-120 (Oryza sativa, UniProt Q0JBH9 23-120); assay: Y2H; output trait library
T10 construct: bait, Gal4 DBD fusion; also called Elicitor responsive protein
T10 sequence: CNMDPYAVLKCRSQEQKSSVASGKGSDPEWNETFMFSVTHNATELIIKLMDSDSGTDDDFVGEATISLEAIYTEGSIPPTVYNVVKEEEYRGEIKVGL
How it was run: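 The values record whether an interaction was detected. In an automated, high-throughput yeast two-hybrid screen from Myriad Genetics Inc., rice protein fragments defined by amino-acid range were used as bait against rice prey clone libraries. Full-length genes were identified by BLAST comparison of the sequences encoding the interacting prey fragments against databases.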

T2 sequence (Q6EP31 whole entry, the tested form may be a part): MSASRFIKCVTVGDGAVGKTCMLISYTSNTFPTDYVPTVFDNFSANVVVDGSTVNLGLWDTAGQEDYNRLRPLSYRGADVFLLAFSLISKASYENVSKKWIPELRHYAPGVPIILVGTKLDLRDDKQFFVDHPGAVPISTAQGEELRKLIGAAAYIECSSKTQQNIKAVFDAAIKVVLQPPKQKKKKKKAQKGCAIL

- binding result (OsCS aa 316-583): binds
B1: OsCS aa 316-582 (other)
chain: LLDQFPKWYPINRETYLDRLALRYDREGEPSQLAPIDVFVSTVDPLKEPPLITANTVLSILAVDYPVDKVSCYVSDDGSAMLTFEALSETAEFARKWVPFCKKHNIEPRAPEFYFAQKIDYLKDKIQPSFVKERRAMKREYEEFKVRINALVAKAQKVPEEGWTMADGTAWPGNNPRDHPGMIQVFLGHSGGLDTDGNELPRLVYVSREKRPGFQHHKKAGAMNALIRVSAVLTNGAYLLNVDCDHYFNNSKALREAMCFMMDPALG
notes: prey, AD fusion; also called PN19707

- binding result (OsRACD aa 1-198): binds
B2: OsPN22824 aa 301-500 (other)
chain: DGEEVSCGIKAALAEKELEEEETKKMIEEESIDATAIDSGEKENPEVAELKAKLMAKDMEVAILTADNAELKKQVGEAAEAAKKAEEEAAAKASLVEQDLKERAAREARMGEQLRASEAARETLEAEMRRLRVQTEQWRKAAEAAPPVIGGDAHFVGHNGNGWGSPATMPDDCDDEGFGGKRKGAGIRMLGDLWKKKGSK
notes: prey, AD fusion

- binding result (PN20674 aa 64-263): binds
- binding result (PN20674 aa 71-298): binds
B3: OsERP (PN20696) aa 50-145 (other)
chain: PEWNETFMFSVTHNATELIIKLMDSDSGTDDDFVGEATISLEAIYTEGSIPPTVYNVVKEEEYRGEIKVGLTFTPEDDRDRGLSEEDIGGWKQSS
notes: bait, Gal4 DBD fusion; also called Elicitor responsive protein

- binding result (OsS49462 aa 1-100): binds
B4: OsPN30848 aa 365-476 (other)
chain: DCSLAKPPAADKKDDRVPLPSSNGAPLLPSYPPLGYGIMSVPGAYGAAPASTAQPMLYAPRAPPGAAMVPMMLPDGRLVYVVQQPGGQLPLASPPPQQAGHRSGSGGRHGGS
notes: prey, AD fusion

- binding result (Os008938-3209 aa 53-259): binds
B5: OsCAA90866 aa 100-250 (other)
chain: GEMTERVAQEDRIPVLKASQDHLKEFISICEALELISEDELEISRQKNLIPWQIEEHRRLHGSSAKRLQKQSSRIKERKERRRRHESSCLSAPIELGGDLLRMMEKEREGMVSYYLIGSIEGFDLLDMLKKEEEIVPAVKEGKRRMVMHLL
notes: bait, Gal4 DBD fusion; also called PN20311; O. sativa Chilling-Inducible Protein CAA90866

- binding result (OsPN22154 aa 390-562): binds
- binding result (OsCATA aa 332-433): binds
- binding result (OsCS aa 411-489): binds
B6: OsCHIB1 aa 10-200 (enzyme)
chain: YIGAQFTGVRFSDVPVNPGLSFHFILAFAIDYFMATQSSKPAPANGVFAPYWDTANLSPAAVAAAKAAHPNLSVILALGGDTVQNTGVNATFAPTSSVDAWVRNAADSVSGLIDAYGLDGVDVDYEHFAAGVDTFVECIGRLLTELKARHPNIATSIAPFEHPVVQRYYQPLWRRYAGVIDYVNFQFYGYG
notes: bait, Gal4 DBD fusion; also called PN19651; O. sativa Chitinase, Class III

- binding result [1]: binds
B7: PN31085 aa 378-553 (other)
chain: NGTISDSLGNLSELSDINLIGNNLTGHVPDSLTSLRLLQKLDLSGNDLTGPLPTFSPSVKVNVTGNLNFNGTAPGSAPSKDTPGSSSSRAPTLPGQGVLPENKKKRSAVVLATTIPVAVSVVALASVCAVLIFRKKRGSVPPNAASVVVHPRENSDPDNLVKIVMVNNDGNSSSTQ
notes: prey, AD fusion; also called Receptor-like protein kinase-like

From patent publication US20060253917A1 (published 2006)
